Reference: article PMC12525094

Key:
[1] = tested on: BvPgb 1.2 rWT (class 1 phytoglobin) (Beta vulgaris); experiment: isothermal spectral shift (Monolith X); conditions: PBS pH 7.4, 0.05% Tween20, 25 °C, 15 min equilibration, 16-step DNA dilution, top DNA stock 673 nM (i.e. 2.5 ng pET19b/µL; the two figures are …)
[2] = tested on: BvPgb 1.2 C86A (Beta vulgaris); experiment: isothermal spectral shift (Monolith X); conditions: PBS pH 7.4, 0.05% Tween20, 25 °C, 15 min equilibration, 16-step DNA dilution, top DNA stock 673 nM (i.e. 2.5 ng pET19b/µL; the two figures are …)
[3] = biological target: Class 1 phytoglobin from Beta vulgaris (BvPgb 1.2), recombinant wild type (Beta vulgaris (sugar beet)); experiment: other fluorescence titration; isothermal spectral shift (SpS), Monolith X, dual emission ratio 670/650 nm; NHS-dye-labelled Pgb mixed with a sixteen-step dilution of GAPDH (highest 32 µM), equilibrated 15 min, in capillaries; PBS pH 7.4 with 0.05% Tween20; 25 °C
[4] = biological target: Class 1 phytoglobin from Beta vulgaris (BvPgb 1.2), cysteine-to-alanine variant C86A (Beta vulgaris (sugar beet)); experiment: as above
[5] = closed (hexacoordinate) phase of biphasic fit
[6] = open (pentacoordinate) phase of biphasic fit

Row | Substance | Kd [1, 5] | Kd [1, 6] | Kd [2, 5] | Kd [2, 6] | Kd [3] | Kd [4]
1 | pET19b plasmid DNA | 0.1 nM | 120 nM | 0.23 nM | 50 nM | – | –
2 | Glyceraldehyde-3-phosphate dehydrogenase (GAPDH), human (from UniProt P04406 1-335) (enzyme) | – | – | – | – | 260 nM | 120 nM
